The chains are these.
B1: LINE1-mini (parent)
chain: GGCAGAGCUCAACACAGCGUGGCAAAGUGGCUGUGGCUAGACUGCC

This data set covers variants of B1. Description: self-cleavage, relative activity (ratio to wild type); higher = more cleavage; in vitro, sequencing; the parent is a self-cleaving ribozyme.
For G22U G30U, the self-cleavage is 1.03.

Regarding A24C G27U, the self-cleavage stood at 0.55.

Turning to A24C G27C, the self-cleavage came out at 0.77.

Regarding A24C G27A, the self-cleavage came to 0.77.

As to C23U C31U, the self-cleavage was 0.47.

For the variant C23U C31A, the self-cleavage stood at 0.24.

For C23U C31G, the self-cleavage came out at 0.16.

In the case of G22U A41C, the self-cleavage turned out to be 0.04.

As for G22U A41U, the self-cleavage was determined as 0.72.

As for G22U A41G, the self-cleavage came to 0.37.

Take G22U U43C: the self-cleavage was 0.18.

Take G22U U43A: the self-cleavage is 0.06.

Consider G22U U43G, for which the self-cleavage stood at 0.03.

With C23U U34G, the self-cleavage was 0.3.

Take C23U U34A: the self-cleavage amounted to 0.28.

As to C23U U34C, the self-cleavage came to 0.62.

C23U G30A: the self-cleavage was 2.05.

Turning to C23U G30C, the self-cleavage was 2.32.

As to C23U G30U, the self-cleavage came to 1.38.

As to G22U A39C, the self-cleavage was 0.14.

With G22U A39G, the self-cleavage was 0.08.

On to G22U A39U, for which the self-cleavage is 1.

In the case of C23A U32G, the self-cleavage is 0.22.

For the variant C23A U32C, the self-cleavage is 0.47.

With C23A U32A, the self-cleavage is 0.11.

Consider C23A U43G, for which the self-cleavage worked out at 0.02.

Take C23A U43C: the self-cleavage is 0.08.

For C23A U43A, the self-cleavage was determined as 0.1.

For A24C, the self-cleavage was 0.71.

C23A G35U: the self-cleavage worked out at 0.22.

C23A G35C: the self-cleavage came out at 0.14.

Consider C23A G35A, for which the self-cleavage was determined as 0.23.

C23U U38A: the self-cleavage is 0.47.

For the variant C23U U38C, the self-cleavage was determined as 0.93.

For C23U U38G, the self-cleavage came to 0.04.

On to C23U U28G, for which the self-cleavage turned out to be 0.6.

With C23U U28A, the self-cleavage came to 0.82.

As to C23U U28C, the self-cleavage came to 1.37.

With C23A C42G, the self-cleavage was 0.06.

As for C23A C42U, the self-cleavage came to 0.52.

With C23A C42A, the self-cleavage was found to be 0.3.

In the case of C23G U34C, the self-cleavage worked out at 0.32.

Consider C23G U34G, for which the self-cleavage is 0.23.

C23G U34A: the self-cleavage amounted to 0.09.

Take C23A C37G: the self-cleavage was determined as 0.02.

With C23A C37A, the self-cleavage turned out to be 0.06.

For the variant C23A C37U, the self-cleavage is 0.03.

For C23G C46G, the self-cleavage is 0.6.

Regarding C23G C46U, the self-cleavage was found to be 1.

Regarding C23G C46A, the self-cleavage came to 1.07.

Take A24C C46U: the self-cleavage stood at 0.64.

In the case of A24C C46A, the self-cleavage is 0.32.

On to A24C C46G, for which the self-cleavage is 0.27.

G22U U38G: the self-cleavage was determined as 0.04.

Take G22U U38A: the self-cleavage turned out to be 0.46.

With G22U U38C, the self-cleavage was found to be 2.12.

Take C23A G40U: the self-cleavage turned out to be 0.14.

As for C23A G40A, the self-cleavage came out at 0.14.

Regarding C23A G40C, the self-cleavage turned out to be 0.15.

Take G22U U34G: the self-cleavage was 0.26.

On to G22U U34C, for which the self-cleavage was determined as 0.44.

For the variant G22U U34A, the self-cleavage amounted to 0.19.

On to C23G G40A, for which the self-cleavage amounted to 0.07.

In the case of C23G G40C, the self-cleavage is 0.13.

Turning to C23G G40U, the self-cleavage is 0.14.

On to C23A G27C, for which the self-cleavage came to 0.81.

As for C23A G27U, the self-cleavage was found to be 0.72.

Consider C23A G27A, for which the self-cleavage was found to be 0.92.

Turning to A24C A25G, the self-cleavage turned out to be 0.89.

For the variant A24C A25U, the self-cleavage is 1.01.

In the case of A24C A25C, the self-cleavage was found to be 0.73.

Turning to C23G G36C, the self-cleavage was 0.11.

For the variant C23G G36A, the self-cleavage was 0.14.

C23G G36U: the self-cleavage is 0.07.

Consider A24C C45U, for which the self-cleavage was found to be 0.7.

For the variant A24C C45G, the self-cleavage came to 0.16.

In the case of A24C C45A, the self-cleavage is 0.16.

With C23U C45A, the self-cleavage is 0.47.

With C23U C45G, the self-cleavage was found to be 0.51.

Regarding C23U C45U, the self-cleavage amounted to 1.09.

On to C23G G44U, for which the self-cleavage amounted to 0.16.

For C23G G44A, the self-cleavage was 0.41.

For C23G G44C, the self-cleavage is 0.2.

As to C23U C37A, the self-cleavage came to 0.04.

C23U C37G: the self-cleavage was determined as 0.02.

As to C23U C37U, the self-cleavage stood at 0.04.

For C23G U28C, the self-cleavage is 0.66.

In the case of C23G U28G, the self-cleavage worked out at 0.89.

With C23G U28A, the self-cleavage stood at 0.7.

As for G22U G33U, the self-cleavage was found to be 0.28.

For the variant G22U G33A, the self-cleavage came out at 0.63.

Regarding G22U G33C, the self-cleavage came out at 0.07.

Turning to C23A U38A, the self-cleavage stood at 0.28.

Consider C23A U38G, for which the self-cleavage is 0.02.

As for C23A U38C, the self-cleavage came to 0.52.

Turning to C23A G29U, the self-cleavage worked out at 0.88.

On to C23A G29A, for which the self-cleavage was determined as 0.91.

Regarding C23A G29C, the self-cleavage is 0.39.

As for C23A U34G, the self-cleavage is 0.22.

As to C23A U34A, the self-cleavage was 0.24.

As to C23A U34C, the self-cleavage was determined as 0.78.

Turning to C23U A41G, the self-cleavage was 0.51.

On to C23U A41U, for which the self-cleavage turned out to be 0.57.

With C23U A41C, the self-cleavage was 0.06.

Consider G22C U43A, for which the self-cleavage was determined as 0.12.

Turning to G22C U43C, the self-cleavage amounted to 0.06.

G22C U43G: the self-cleavage was determined as 0.06.

As for C23A G44U, the self-cleavage turned out to be 0.28.

Turning to C23A G44A, the self-cleavage turned out to be 0.61.

In the case of C23A G44C, the self-cleavage came out at 0.51.

Regarding C23G G33U, the self-cleavage turned out to be 0.16.

In the case of C23G G33C, the self-cleavage turned out to be 0.03.

As for C23G G33A, the self-cleavage turned out to be 0.32.

As for G22C U38G, the self-cleavage was determined as 0.05.

Take G22C U38C: the self-cleavage was 0.68.

With G22C U38A, the self-cleavage was determined as 0.31.

With C23G U32G, the self-cleavage amounted to 0.21.

As for C23G U32C, the self-cleavage came to 0.28.

For the variant C23G U32A, the self-cleavage turned out to be 0.07.

Regarding G22U A24G, the self-cleavage turned out to be 1.25.

On to G22U A24U, for which the self-cleavage is 1.4.

As to G22U A24C, the self-cleavage was 0.92.

For the variant G22U C46G, the self-cleavage worked out at 0.91.

With G22U C46A, the self-cleavage stood at 1.15.

For the variant G22U C46U, the self-cleavage worked out at 1.22.

G22U G44U: the self-cleavage worked out at 0.27.

For the variant G22U G44A, the self-cleavage turned out to be 0.85.

For G22U G44C, the self-cleavage amounted to 0.34.

In the case of C23G C45U, the self-cleavage was 0.97.

On to C23G C45A, for which the self-cleavage was 0.79.

As to C23G C45G, the self-cleavage was determined as 0.77.

Turning to C23U G33A, the self-cleavage is 0.15.

For C23U G33U, the self-cleavage stood at 0.16.

Turning to C23U G33C, the self-cleavage was 0.05.

Regarding C23U G36U, the self-cleavage was determined as 0.04.

Consider C23U G36C, for which the self-cleavage worked out at 0.07.

C23U G36A: the self-cleavage was 0.14.

With C23A C31G, the self-cleavage was 0.08.

As for C23A C31U, the self-cleavage came out at 0.45.

For the variant C23A C31A, the self-cleavage was determined as 0.26.

As for C23A A24C, the self-cleavage amounted to 0.85.

As to C23A A24U, the self-cleavage stood at 1.

Turning to C23A A24G, the self-cleavage was 0.53.

C23A G30U: the self-cleavage was 1.16.

Consider C23A G30A, for which the self-cleavage is 1.34.

For C23A G30C, the self-cleavage worked out at 2.68.

As to G22U G36U, the self-cleavage came out at 0.06.

Turning to G22U G36C, the self-cleavage was found to be 0.1.

Consider G22U G36A, for which the self-cleavage is 0.15.

Turning to A24C C42G, the self-cleavage came out at 0.05.

Consider A24C C42A, for which the self-cleavage was 0.15.

As to A24C C42U, the self-cleavage came to 0.13.

Turning to G22U G29U, the self-cleavage was determined as 0.72.

Turning to G22U G29A, the self-cleavage was 1.67.

In the case of G22U G29C, the self-cleavage was found to be 0.84.

In the case of C23A, the self-cleavage stood at 1.01.

With C23G, the self-cleavage came to 0.84.

Consider C23U, for which the self-cleavage came to 1.03.

With C23U U43A, the self-cleavage came to 0.07.

Consider C23U U43G, for which the self-cleavage worked out at 0.03.

In the case of C23U U43C, the self-cleavage is 0.43.

Turning to C23A A39U, the self-cleavage was determined as 0.73.

As to C23A A39C, the self-cleavage was determined as 0.27.

As for C23A A39G, the self-cleavage stood at 0.08.

For C23G C31U, the self-cleavage was found to be 0.2.

As for C23G C31G, the self-cleavage amounted to 0.07.

Consider C23G C31A, for which the self-cleavage is 0.09.

The values above are taken from the RNAGym collection of RNA variant scans (doi:10.7554/elife.90254).
